Legend:
human TGFβ1 (human) = human TGFβ1 (human) (UniProt P01137)
human TGFβ3 (human) = human TGFβ3 (human) (UniProt P10600)
Sequence of UniProt P10600 (P10600 301-412 limits assumed): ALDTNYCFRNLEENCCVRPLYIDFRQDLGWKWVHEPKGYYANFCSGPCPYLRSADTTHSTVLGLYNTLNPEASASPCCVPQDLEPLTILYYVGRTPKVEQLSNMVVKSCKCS

Sequence of UniProt P01137 (P01137 279-390 limits assumed): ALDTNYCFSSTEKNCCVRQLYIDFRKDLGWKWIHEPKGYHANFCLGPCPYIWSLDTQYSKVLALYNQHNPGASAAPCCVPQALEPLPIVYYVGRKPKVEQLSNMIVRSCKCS

IC50, inhibition of TGFβ1-induced Smad2 reporter activity (human TGFβ1 (human)): 0.91 nM
IC50, inhibition of TGFβ3-induced Smad2 reporter activity (human TGFβ3 (human)): 1.95 nM
Substance: M7824

Source: patent publication US20240360219A1
